pKd: −log10 of the molar value. Where “and” joins values, the source holds several entries; their conditions need not be identical. Identical values can stand only once. Like-named read-outs stand apart in the source and are kept apart here.
Key:
Experiment in all cases: SPR
[1] = target: Recombinant human VEGFR-1 Fc chimera (human) (UniProt P17948)
[2] = target: Recombinant human VEGFR-2 Fc chimera (human) (UniProt P35968)
[3] = target: Recombinant human VEGFR-2 Fc chimera (human) (UniProt P35968); remark: listed apart in the source
[4] = target: Recombinant human VEGFR-1 Fc chimera (human) (UniProt P17948); remark: listed apart in the source
[5] = target: Recombinant human VEGFR-2 Fc chimera (human) (UniProt P35968); remark: listed apart in the source
[6] = target: Recombinant human VEGFR-1 Fc chimera (human) (UniProt P17948); remark: listed apart in the source
[7] = target: Recombinant human VEGFR-2 Fc chimera (human) (UniProt P35968); remark: listed apart in the source
[8] = target: Recombinant mouse neuropilin-1 (NRP-1 monomer) (mouse) (UniProt P97333)
Sequence of UniProt P97333 (P97333 22-856): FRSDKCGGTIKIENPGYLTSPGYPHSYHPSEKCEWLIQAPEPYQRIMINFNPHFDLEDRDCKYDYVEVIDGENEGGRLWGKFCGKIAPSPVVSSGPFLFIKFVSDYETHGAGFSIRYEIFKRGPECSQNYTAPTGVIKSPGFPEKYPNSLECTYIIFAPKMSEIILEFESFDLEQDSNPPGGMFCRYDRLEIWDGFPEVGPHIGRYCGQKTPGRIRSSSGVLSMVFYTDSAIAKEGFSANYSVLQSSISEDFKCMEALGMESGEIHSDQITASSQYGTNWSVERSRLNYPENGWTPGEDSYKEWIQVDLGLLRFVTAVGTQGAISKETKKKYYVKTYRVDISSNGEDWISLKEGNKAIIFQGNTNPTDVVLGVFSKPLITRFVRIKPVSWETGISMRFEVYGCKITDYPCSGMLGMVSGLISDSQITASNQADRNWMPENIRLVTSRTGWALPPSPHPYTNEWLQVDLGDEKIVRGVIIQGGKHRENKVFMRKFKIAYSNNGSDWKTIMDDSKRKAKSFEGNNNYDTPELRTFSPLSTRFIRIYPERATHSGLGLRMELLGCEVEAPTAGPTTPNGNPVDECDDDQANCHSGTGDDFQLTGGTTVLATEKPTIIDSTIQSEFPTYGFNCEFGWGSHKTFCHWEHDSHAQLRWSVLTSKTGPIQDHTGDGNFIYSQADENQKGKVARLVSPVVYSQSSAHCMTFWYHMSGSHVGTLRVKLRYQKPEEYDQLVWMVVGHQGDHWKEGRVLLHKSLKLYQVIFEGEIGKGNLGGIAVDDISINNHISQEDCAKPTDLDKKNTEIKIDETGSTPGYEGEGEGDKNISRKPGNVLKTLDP

[9] = target: Recombinant mouse neuropilin-1 (NRP-1 monomer) (mouse) (UniProt P97333); remark: listed apart in the source

Sequence of UniProt P35968 (P35968 20-764, change not shown): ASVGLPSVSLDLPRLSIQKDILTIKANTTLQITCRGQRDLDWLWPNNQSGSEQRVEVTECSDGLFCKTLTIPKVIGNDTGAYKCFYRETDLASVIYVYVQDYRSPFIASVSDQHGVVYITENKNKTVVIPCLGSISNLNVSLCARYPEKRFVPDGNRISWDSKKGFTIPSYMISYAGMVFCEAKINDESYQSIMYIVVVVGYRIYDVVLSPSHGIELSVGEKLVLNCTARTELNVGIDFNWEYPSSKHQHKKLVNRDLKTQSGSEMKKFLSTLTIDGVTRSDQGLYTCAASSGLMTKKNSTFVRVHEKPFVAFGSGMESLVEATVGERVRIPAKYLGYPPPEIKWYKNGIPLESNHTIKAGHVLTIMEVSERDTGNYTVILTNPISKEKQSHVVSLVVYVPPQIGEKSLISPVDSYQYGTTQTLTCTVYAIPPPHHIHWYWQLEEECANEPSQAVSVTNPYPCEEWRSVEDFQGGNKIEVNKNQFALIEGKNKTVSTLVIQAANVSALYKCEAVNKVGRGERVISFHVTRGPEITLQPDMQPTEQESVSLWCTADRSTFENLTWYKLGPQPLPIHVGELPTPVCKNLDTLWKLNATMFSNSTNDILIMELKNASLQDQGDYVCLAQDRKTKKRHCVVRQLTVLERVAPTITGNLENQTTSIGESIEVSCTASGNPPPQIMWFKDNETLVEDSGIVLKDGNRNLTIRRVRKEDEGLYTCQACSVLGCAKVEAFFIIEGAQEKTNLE
Sequence of UniProt P17948 (P17948 27-758, change not shown): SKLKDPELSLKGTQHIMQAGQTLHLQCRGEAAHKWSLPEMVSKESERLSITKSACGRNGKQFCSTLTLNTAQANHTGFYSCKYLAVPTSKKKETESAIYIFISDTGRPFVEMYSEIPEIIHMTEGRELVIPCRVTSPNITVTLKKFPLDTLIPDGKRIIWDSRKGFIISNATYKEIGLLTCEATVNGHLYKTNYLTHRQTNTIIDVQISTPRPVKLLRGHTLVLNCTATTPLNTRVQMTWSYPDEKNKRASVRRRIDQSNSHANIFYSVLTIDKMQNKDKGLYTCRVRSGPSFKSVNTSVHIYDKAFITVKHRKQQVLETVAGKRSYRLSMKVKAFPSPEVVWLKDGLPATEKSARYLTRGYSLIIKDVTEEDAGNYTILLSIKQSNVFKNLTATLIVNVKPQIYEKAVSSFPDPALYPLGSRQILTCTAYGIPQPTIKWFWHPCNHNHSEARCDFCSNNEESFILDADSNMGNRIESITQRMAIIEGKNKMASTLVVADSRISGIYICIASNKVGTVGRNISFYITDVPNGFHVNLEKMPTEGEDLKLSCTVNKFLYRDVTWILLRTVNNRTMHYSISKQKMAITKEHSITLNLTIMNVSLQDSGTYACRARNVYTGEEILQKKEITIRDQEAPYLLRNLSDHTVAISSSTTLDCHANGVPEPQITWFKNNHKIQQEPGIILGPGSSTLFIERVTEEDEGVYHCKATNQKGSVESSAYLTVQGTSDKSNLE

pKd [1] | pKd [2] | kon [3] [M⁻¹ s⁻¹] | pKd [4] | koff [4] | kon [4] [M⁻¹ s⁻¹] | pKd [5] | kon [5] [M⁻¹ s⁻¹] | pKd [6] | pKd [7] | pKd [8] | koff [5] [s⁻¹] | pKd [9] | koff [9] [s⁻¹] | kon [9] [M⁻¹ s⁻¹] | Substance
8.14 | 7.77 | 547000 | 8.21 | 0.0088 s⁻¹ | 1.43e+06 | 8.26 | 5.47e+06 | – | – | – | – | – | – | – | Recombinant human VEGF121 (ligand)
– | – | – | 9.71 | 0.000569 s⁻¹ and 0.000592 s⁻¹ | 2.91e+06 | 8.07 | 1.76e+06 | 8.43 | 7.74 | 7.55 | 0.0151 | 7.60 | 0.065 | 2.64e+06 | Recombinant human VEGF165 (ligand)
